Measurements from patent US20240410900A1.

How the values were obtained:
[1] = target: non-targeted IgG-IL2 (interleukin-2 fused to the C-terminus of a heavy chain of a germline antibody, which is not binding to a target); assay: bridging ELISA, IgG-IL2-Bi and -Dig, binder 0.5 ng/mL assay / 10 ng/mL matrix
[2] = target: non-targeted IgG-IL2 (interleukin-2 fused to the C-terminus of a heavy chain of a germline antibody, which is not binding to a target); assay: bridging ELISA, IgG-IL2-Bi and -Dig, binder 31 ng/mL assay / 625 ng/mL matrix
[3] = target: TCB (T-cell bispecific format) drug antibody; assay: bridging ELISA, drug-Bi and drug-Dig, human pooled serum, binder 0.03 ng/mL assay / 0.6 ng/mL matrix
[4] = target: targeted IgG-IL2 (interleukin-2 fused to the C-terminus of a heavy chain of an antibody specifically binding to a therapeutic target); assay: as above
[5] = target: non-targeted IgG-IL2 (interleukin-2 fused to the C-terminus of a heavy chain of a germline antibody, which is not binding to a target); assay: as above
[6] = target: non-targeted IgG-IL2 (interleukin-2 fused to the C-terminus of a heavy chain of a germline antibody, which is not binding to a target); assay: bridging ELISA, IgG-IL2-Bi and -Dig, binder 1.0 ng/mL assay / 20 ng/mL matrix
[7] = target: non-targeted IgG-IL2 (interleukin-2 fused to the C-terminus of a heavy chain of a germline antibody, which is not binding to a target); assay: bridging ELISA, IgG-IL2-Bi and -Dig, binder 3.9 ng/mL assay / 78 ng/mL matrix
[8] = target: non-targeted IgG-IL2 (interleukin-2 fused to the C-terminus of a heavy chain of a germline antibody, which is not binding to a target); assay: bridging ELISA, IgG-IL2-Bi and -Dig, binder 125 ng/mL assay / 2500 ng/mL matrix
[9] = target: non-targeted IgG-IL2 (interleukin-2 fused to the C-terminus of a heavy chain of a germline antibody, which is not binding to a target); assay: bridging ELISA, IgG-IL2-Bi and -Dig, binder 7.8 ng/mL assay / 156 ng/mL matrix
[10] = target: non-targeted IgG-IL2 (interleukin-2 fused to the C-terminus of a heavy chain of a germline antibody, which is not binding to a target); assay: bridging ELISA, IgG-IL2-Bi and -Dig, binder 63 ng/mL assay / 1250 ng/mL matrix
[11] = target: non-targeted IgG-IL2 (interleukin-2 fused to the C-terminus of a heavy chain of a germline antibody, which is not binding to a target); assay: bridging ELISA, IgG-IL2-Bi and -Dig, binder 0.03 ng/mL assay / 0.6 ng/mL matrix
[12] = target: TCB (T-cell bispecific format) drug antibody; assay: bridging ELISA, drug-Bi and drug-Dig, human pooled serum, binder 125 ng/mL assay / 2500 ng/mL matrix
[13] = target: targeted IgG-IL2 (interleukin-2 fused to the C-terminus of a heavy chain of an antibody specifically binding to a therapeutic target); assay: as above
[14] = target: non-targeted IgG-IL2 (interleukin-2 fused to the C-terminus of a heavy chain of a germline antibody, which is not binding to a target); assay: as above
[15] = target: TCB (T-cell bispecific format) drug antibody; assay: bridging ELISA, drug-Bi and drug-Dig, human pooled serum, binder 7.8 ng/mL assay / 156 ng/mL matrix
[16] = target: targeted IgG-IL2 (interleukin-2 fused to the C-terminus of a heavy chain of an antibody specifically binding to a therapeutic target); assay: as above
[17] = target: non-targeted IgG-IL2 (interleukin-2 fused to the C-terminus of a heavy chain of a germline antibody, which is not binding to a target); assay: as above
[18] = target: TCB (T-cell bispecific format) drug antibody; assay: bridging ELISA, drug-Bi and drug-Dig, human pooled serum, binder 500 ng/mL assay / 10000 ng/mL matrix
[19] = target: targeted IgG-IL2 (interleukin-2 fused to the C-terminus of a heavy chain of an antibody specifically binding to a therapeutic target); assay: as above
[20] = target: non-targeted IgG-IL2 (interleukin-2 fused to the C-terminus of a heavy chain of a germline antibody, which is not binding to a target); assay: as above
[21] = target: non-targeted IgG-IL2 (interleukin-2 fused to the C-terminus of a heavy chain of a germline antibody, which is not binding to a target); assay: bridging ELISA, IgG-IL2-Bi and -Dig, binder 500 ng/mL assay / 10000 ng/mL matrix
[22] = target: targeted IgG-IL2 (interleukin-2 fused to the C-terminus of a heavy chain of an antibody specifically binding to a therapeutic target); assay: bridging ELISA, drug-Bi and drug-Dig, human pooled serum, binder 16 ng/mL assay / 312.5 ng/mL matrix
[23] = target: TCB (T-cell bispecific format) drug antibody; assay: bridging ELISA, drug-Bi and drug-Dig, human pooled serum, binder 250 ng/mL assay / 5000 ng/mL matrix
[24] = target: targeted IgG-IL2 (interleukin-2 fused to the C-terminus of a heavy chain of an antibody specifically binding to a therapeutic target); assay: as above
[25] = target: non-targeted IgG-IL2 (interleukin-2 fused to the C-terminus of a heavy chain of a germline antibody, which is not binding to a target); assay: as above

B1: multivalent anti-PG antibody derived from clone 1.7.24 (mixed Pool 2, 3, 4) (antibody, V domains shown)
VH: EVKLLESGGGLVQPGGSLKLSCAASGFDFSRYWMNWVRQAPGKGLEWIGEITPDSSTINYTPSLKDKFIISRDNAKNTLYLQMIKVRSEDTALYYCVRPYDYGAWFASWGQGTLVTVSA
VL: QAVVTQESALTTSPGETVTLTCRSSTGAVTTSNYANWVQEKPDHLFTGLIGGTNKRAPGVPARFSGSLIGDKAALTITGAQTEDEAIYFCALWYSNHWVFGGGTKLTVL
modifications: lysine amines derivatised with SATP or MHS and cross-linked (sites not given)
B1 showed a signal [AU] [1] of 0.0825 AU, a signal [AU] [2] of 1.89 AU and a signal [AU] [3] of 0.0455 AU. The signal [AU] [4] was 0.04 AU, the signal [AU] [5] was 0.0425 AU and the signal [AU] [6] was 0.114 AU. The signal [AU] [7] was 0.286 AU, the signal [AU] [8] was 3.08 AU and the signal [AU] [9] was 0.539 AU. For the same binder, the signal [AU] [10] was 2.85 AU, the signal [AU] [11] was 0.0525 AU and the signal [AU] [12] was 3.05 AU. For the same binder, the signal [AU] [13] was 3.05 AU, the signal [AU] [14] was 1.4 AU and the signal [AU] [15] was 0.654 AU. The signal [AU] [16] was 0.475 AU, the signal [AU] [17] was 0.137 AU and the signal [AU] [18] was 2.99 AU. It also gave a signal [AU] [19] of 3.01 AU, a signal [AU] [20] of 2.81 AU and a signal [AU] [21] of 3.09 AU. For the same binder, the signal [AU] [22] was 0.894 AU, the signal [AU] [23] was 2.99 AU and the signal [AU] [24] was 2.99 AU. For the same binder, the signal [AU] [25] was 2.17 AU.
